Results: publication PMC9484259
pKd: −log10 of the molar value.

Columns and labels:
Assay in all cases: BLI; Forte Bio Octet; biotinylated Mm IgG or Fc captured on streptavidin SAX 2.0 tips, FcγRIII in solution in 3-fold serial dilutions (10 mM to 0.013 mM [sic]), PBST (0.05% Tween-PBS), 300 s association and 300 s dissociation; KD from equilibrium fits, average of two independent experiments; the footnote of Table 1 says SPR
[1] = biological target: Mm IgG2 (Macaca mulatta (rhesus macaque))
[2] = biological target: Mm IgG3 (Macaca mulatta (rhesus macaque))
[3] = biological target: Mm IgG1 (Macaca mulatta (rhesus macaque))
[4] = biological target: Fc of Mm IgG4 (Macaca mulatta (rhesus macaque))
[5] = biological target: Fc of Mm IgG3 (Macaca mulatta (rhesus macaque))
[6] = biological target: Mm IgG4 (Macaca mulatta (rhesus macaque))
[7] = biological target: macaque immunoglobulin IgG1 Fc (residues 237-447) (Macaca mulatta (rhesus macaque))
[8] = biological target: Fc of Mm IgG2 (Macaca mulatta (rhesus macaque))

| Substance | pKd [1] | pKd [2] | pKd [3] | pKd [4] | pKd [5] | pKd [6] | pKd [7] | pKd [8] |
| --- | --- | --- | --- | --- | --- | --- | --- | --- |
| Mm FcγRIII(Ile^158), fully glycosylated, Man5 glycans (from UniProt A3RFZ7 21-206) (receptor) | 5.82 | 5.72 | 6.66 | 5.96 | 6.54 | 6.31 | 6.68 | 6.82 |
| Mm FcγRIII(Ile^158), fully glycosylated, complex glycans (from UniProt A3RFZ7 21-206) (receptor) | 5.74 | 5.72 | 6.59 | 5.74 | 6.40 | 6.01 | 6.60 | 6.64 |
| Mm FcγRIII(Ile^158), partial glycosylation (Asn^38 and Asn^169 glycans removed), Man5 glycans (receptor) | 5.55 | 5.52 | 6.55 | 5.72 | 6.80 | 5.77 | 7.22 | 5.82 |
| Mm FcγRIII(Ile^158), partial glycosylation (Asn^38 and Asn^169 glycans removed), complex glycans (receptor) | 5.64 | 5.55 | 6.47 | 5.66 | 6.64 | 5.64 | 6.92 | 5.80 |
| Mm FcγRIII(Val^158), fully glycosylated, Man5 glycans (receptor) | 5.74 | 5.64 | 6.55 | 6.28 | 6.62 | 6.52 | 6.52 | 7.10 |
| Mm FcγRIII(Val^158), fully glycosylated, complex glycans (receptor) | 5.68 | 5.49 | 6.39 | 6.20 | 6.34 | 6.24 | 6.44 | 7.05 |
| Mm FcγRIII(Val^158), partial glycosylation (Asn^38 and Asn^169 glycans removed), Man5 glycans (receptor) | 5.66 | 5.32 | 6.54 | 6.07 | 6.55 | 5.66 | 8.00 | 6.21 |
| Mm FcγRIII(Val^158), partial glycosylation (Asn^38 and Asn^169 glycans removed), complex glycans (receptor) | 5.59 | 5.38 | 6.34 | 6.00 | 6.60 | 5.52 | 7.52 | 5.92 |
